Reference: patent publication US20160130577

Columns and labels:
Test in all cases: pulldown
Settings in all cases: mass spectrometry
[1] = biological target: HNRPC (hnRNP C) (Homo sapiens) (UniProt P07910)
[2] = biological target: HNRPU (hnRNP U) (Homo sapiens) (UniProt Q00839)
[3] = biological target: NUCL (nucleolin) (Homo sapiens) (UniProt P19338)
RS3 (Homo sapiens) = RS3 (Homo sapiens) (UniProt P23396)
RS4X (Homo sapiens) = RS4X (Homo sapiens) (UniProt P62701)
hnRNPA1 (Homo sapiens) = hnRNPA1 (Homo sapiens) (UniProt P09651)
hnRNPA1 (Homo sapiens), sequence (P09651 2-372): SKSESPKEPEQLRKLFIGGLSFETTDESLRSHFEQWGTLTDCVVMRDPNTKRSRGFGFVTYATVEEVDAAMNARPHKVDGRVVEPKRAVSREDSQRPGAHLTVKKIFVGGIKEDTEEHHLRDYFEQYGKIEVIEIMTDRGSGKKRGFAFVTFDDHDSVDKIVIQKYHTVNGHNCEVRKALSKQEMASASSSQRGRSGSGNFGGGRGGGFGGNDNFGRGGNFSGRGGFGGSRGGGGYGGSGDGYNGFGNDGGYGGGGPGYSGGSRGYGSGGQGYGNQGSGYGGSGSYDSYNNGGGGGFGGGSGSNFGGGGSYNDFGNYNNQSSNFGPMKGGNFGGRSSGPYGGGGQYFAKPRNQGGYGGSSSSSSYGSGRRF

hnRNPA2B1 (Homo sapiens) = hnRNPA2B1 (Homo sapiens) (UniProt P22626)
hnRNPA2B1 (Homo sapiens), sequence (P22626 whole entry): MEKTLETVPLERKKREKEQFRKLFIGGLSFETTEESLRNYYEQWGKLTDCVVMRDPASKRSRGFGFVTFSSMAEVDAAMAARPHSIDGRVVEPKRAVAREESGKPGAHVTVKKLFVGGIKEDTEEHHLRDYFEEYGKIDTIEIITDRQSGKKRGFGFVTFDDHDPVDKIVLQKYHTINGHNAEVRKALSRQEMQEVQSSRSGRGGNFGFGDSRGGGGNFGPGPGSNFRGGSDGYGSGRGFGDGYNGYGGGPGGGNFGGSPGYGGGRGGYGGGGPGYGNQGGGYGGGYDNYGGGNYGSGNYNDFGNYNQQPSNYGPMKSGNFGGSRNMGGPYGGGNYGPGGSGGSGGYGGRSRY

HNRPU (hnRNP U) (Homo sapiens), sequence (Q00839 2-825): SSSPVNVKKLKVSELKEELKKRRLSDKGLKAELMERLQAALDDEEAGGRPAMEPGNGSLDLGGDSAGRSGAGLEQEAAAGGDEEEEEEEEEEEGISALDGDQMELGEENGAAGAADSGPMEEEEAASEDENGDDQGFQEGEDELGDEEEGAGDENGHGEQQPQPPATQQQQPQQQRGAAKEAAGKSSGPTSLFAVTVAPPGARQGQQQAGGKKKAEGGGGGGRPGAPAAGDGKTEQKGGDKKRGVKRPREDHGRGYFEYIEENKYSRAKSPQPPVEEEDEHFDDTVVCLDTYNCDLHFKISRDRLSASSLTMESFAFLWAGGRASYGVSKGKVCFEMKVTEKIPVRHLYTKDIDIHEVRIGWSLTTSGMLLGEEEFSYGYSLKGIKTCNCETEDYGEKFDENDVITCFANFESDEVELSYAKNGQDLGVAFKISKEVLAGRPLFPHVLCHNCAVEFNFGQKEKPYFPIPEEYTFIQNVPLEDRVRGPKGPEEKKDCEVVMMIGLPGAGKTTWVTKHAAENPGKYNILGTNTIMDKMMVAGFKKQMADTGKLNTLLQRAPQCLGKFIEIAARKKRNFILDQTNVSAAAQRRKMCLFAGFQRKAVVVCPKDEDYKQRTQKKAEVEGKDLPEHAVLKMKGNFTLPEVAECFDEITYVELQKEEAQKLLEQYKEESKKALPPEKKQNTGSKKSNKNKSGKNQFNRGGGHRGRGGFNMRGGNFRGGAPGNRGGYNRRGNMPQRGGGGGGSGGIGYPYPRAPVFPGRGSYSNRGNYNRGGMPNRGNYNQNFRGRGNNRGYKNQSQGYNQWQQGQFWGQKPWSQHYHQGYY
NUCL (nucleolin) (Homo sapiens), sequence (P19338 2-710): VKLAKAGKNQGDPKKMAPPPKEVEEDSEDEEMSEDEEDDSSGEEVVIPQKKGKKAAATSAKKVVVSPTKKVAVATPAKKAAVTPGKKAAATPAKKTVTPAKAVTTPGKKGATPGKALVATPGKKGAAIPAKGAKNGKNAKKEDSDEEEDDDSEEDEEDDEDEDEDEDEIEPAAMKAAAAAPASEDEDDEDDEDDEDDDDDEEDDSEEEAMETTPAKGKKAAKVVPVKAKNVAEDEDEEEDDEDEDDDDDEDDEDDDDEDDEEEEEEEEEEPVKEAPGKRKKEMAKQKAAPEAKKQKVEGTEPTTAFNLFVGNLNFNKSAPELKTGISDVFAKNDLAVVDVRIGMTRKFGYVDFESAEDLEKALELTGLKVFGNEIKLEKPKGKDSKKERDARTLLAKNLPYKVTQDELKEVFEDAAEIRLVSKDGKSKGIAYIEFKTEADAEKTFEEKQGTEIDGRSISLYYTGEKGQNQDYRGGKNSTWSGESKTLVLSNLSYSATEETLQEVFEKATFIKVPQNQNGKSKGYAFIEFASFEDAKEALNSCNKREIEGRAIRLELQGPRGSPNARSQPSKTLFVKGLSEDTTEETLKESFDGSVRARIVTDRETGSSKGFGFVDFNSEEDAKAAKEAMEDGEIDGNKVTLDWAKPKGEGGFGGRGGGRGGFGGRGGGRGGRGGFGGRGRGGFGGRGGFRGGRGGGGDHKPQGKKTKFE
HNRPC (hnRNP C) (Homo sapiens), sequence (P07910 2-306): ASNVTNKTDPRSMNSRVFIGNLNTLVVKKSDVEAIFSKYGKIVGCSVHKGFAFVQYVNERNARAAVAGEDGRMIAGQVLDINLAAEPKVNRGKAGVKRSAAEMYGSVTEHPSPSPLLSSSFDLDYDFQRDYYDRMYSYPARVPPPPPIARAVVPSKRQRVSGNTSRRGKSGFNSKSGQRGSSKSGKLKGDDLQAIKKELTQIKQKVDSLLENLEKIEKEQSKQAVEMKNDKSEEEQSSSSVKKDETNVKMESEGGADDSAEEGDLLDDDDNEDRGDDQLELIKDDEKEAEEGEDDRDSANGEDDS

How did the binding [1] turn out when miR-198 was run?
The binding was 1 peptides.

And the binding [2]?
Its binding is 3 peptides.

What about the binding [3] of the same substance?
The binding was 9 peptides.

And the binding (RS3 (Homo sapiens))?
The binding was 3 peptides.

What about the binding (RS4X (Homo sapiens)) of the same substance?
Its binding is 3 peptides.

And the binding (hnRNPA1 (Homo sapiens))?
Its binding is 2 peptides.

And the binding (hnRNPA2B1 (Homo sapiens); streptavidin bead pulldown)?
Its binding is 4 peptides.

poly-A was tested. Which binding [1] did it give?
Its binding is 0 peptides.

What about the binding [2] of the same substance?
The binding was 0 peptides.

And the binding ([3]; non-specific)?
Its binding is 8 peptides.

What about the binding (RS3 (Homo sapiens)) of the same substance?
Its binding is 0 peptides.

And the binding (RS4X (Homo sapiens))?
Its binding is 0 peptides.

What about the binding (hnRNPA1 (Homo sapiens)) of the same substance?
Its binding is 0 peptides.

And the binding (hnRNPA2B1 (Homo sapiens))?
Its binding is 0 peptides.
